Test [1] deals with HLA-A*26:03. As to the kind of experiment: IEDB peptide-MHC binding, purified MHC/direct/fluorescence; filed as Kd, often an IC50 or EC50 that approximates it; ≥ and ≤ were set here for values at or beyond the usual limits of such assays. The following applies: source organism: Cryptosporidium parvum Iowa II.
The target in a further test is HLA-A*26:01. The description is as above.
For test [2], the target named is HLA-B*08:02. The test is described as above. The following applies: source organism: Cryptosporidium parvum Iowa II.
The target in test [3] is HLA-B*58:01. The test is described as above.
A further test has as its target HLA-B*27:02. The test is described as above. The following applies: source organism: Cryptosporidium parvum Iowa II.
The target in a further test is HLA-B*15:09. The test is described as above. The conditions noted are these: source organism: Cryptosporidium parvum Iowa II.
For test [4], the target named is HLA-B*08:03. Described as above. The conditions noted are these: source organism: Cryptosporidium parvum Iowa II.
Another test concerns the target HLA-B*15:01. The description is as above.
The target of a further test is HLA-B*73:01. Described as above. The conditions noted are these: source organism: Cryptosporidium parvum.
The target in another test is HLA-A*69:01. Described as above.
The next test has as its target HLA-B*27:05. The description is as above.
Another test deals with HLA-B*18:01. The description is as above. The following applies: source organism: Cryptosporidium parvum.
A further test deals with HLA-A*68:02. Described as above. The following applies: source organism: Cryptosporidium parvum.
Test [5] addresses HLA-A*03:01. Described as above.
Another test concerns the target HLA-B*48:01. The description is as above. The following applies: source organism: Cryptosporidium parvum.
For another test, the target named is HLA-A*01:01. The description is as above.
Test [6] deals with HLA-A*31:01. Described as above.
Test [7] addresses HLA-A*11:01. The test is described as above.
Test [8] concerns the target HLA-A*02:01. The test is described as above.
In the next test the target is HLA-B*07:02. The description is as above.
Test [9] concerns the target HLA-B*57:01. The test is described as above. The following applies: source organism: Cryptosporidium parvum.
For another test, the target named is HLA-B*39:01. Put plainly: IEDB peptide-MHC binding, purified MHC/competitive/fluorescence; filed as Kd, often an IC50 or EC50 that approximates it; ≥ and ≤ were set here for values at or beyond the usual limits of such assays. The following applies: source organism: Cryptosporidium parvum Iowa II.
The target in a further test is HLA-A*26:02. Described as above.
The target of a further test is HLA-B*15:17. The test is described as above. The conditions noted are these: source organism: Cryptosporidium parvum Iowa II.
Test [10] has as its target HLA-A*26:03. Described as above. The following applies: source organism: Human immunodeficiency virus 1.
For test [11], the target named is HLA-B*08:02. The test is described as above. The conditions noted are these: source organism: Human immunodeficiency virus 1.
Test [12] addresses HLA-B*08:03. The description is as above. The conditions noted are these: source organism: Human immunodeficiency virus 1.
In test [13] the target is HLA-A*03:01. Described as above. The conditions noted are these: source organism: Human immunodeficiency virus 1.
Test [14] has as its target HLA-A*31:01. The description is as above. The conditions noted are these: source organism: Human immunodeficiency virus 1.
For test [15], the target named is HLA-A*11:01. The test is described as above. The conditions noted are these: source organism: Human immunodeficiency virus 1.
Test [16] addresses HLA-A*30:01. The description is as above. The conditions noted are these: source organism: Human immunodeficiency virus 1.
The target of another test is HLA-B*08:01. Put plainly: IEDB peptide-MHC binding, purified MHC/direct/fluorescence; filed as Kd, often an IC50 or EC50 that approximates it; ≥ and ≤ were set here for values at or beyond the usual limits of such assays. The following applies: source organism: Giardia lamblia ATCC 50803.
For a further test, the target named is HLA-B*44:02. Described as above. The following applies: source organism: Giardia lamblia ATCC 50803.
Another test concerns the target HLA-B*40:01. Described as above. The following applies: source organism: Giardia lamblia ATCC 50803.
For another test, the target named is HLA-A*24:03. The description is as above. The conditions noted are these: source organism: Giardia lamblia ATCC 50803.
Test [17] deals with HLA-A*30:01. Described as above. The conditions noted are these: source organism: Giardia lamblia ATCC 50803.
Test [18] deals with HLA-B*58:01. As to the kind of experiment: IEDB peptide-MHC binding, purified MHC/competitive/radioactivity; filed as Kd, often an IC50 or EC50 that approximates it; ≥ and ≤ were set here for values at or beyond the usual limits of such assays. The following applies: source organism: Homo sapiens.
The target in the next test is HLA-A*02:07. The description is as above. The following applies: source organism: Homo sapiens.
In a further test the target is HLA-A*29:02. The test is described as above. The conditions noted are these: source organism: Homo sapiens.
Test [19] concerns the target HLA-A*02:01. The description is as above. The following applies: source organism: Homo sapiens.
Test [20] addresses HLA-B*57:01. The test is described as above. The following applies: source organism: Homo sapiens.
A further test deals with HLA-B*15:02. As to the kind of experiment: IEDB peptide-MHC binding, purified MHC/direct/fluorescence; filed as Kd, often an IC50 or EC50 that approximates it; ≥ and ≤ were set here for values at or beyond the usual limits of such assays. The conditions noted are these: source organism: Cryptosporidium parvum Iowa II.
Another test deals with HLA-B*46:01. The test is described as above. The conditions noted are these: source organism: Neogale vison.
Test [21] addresses HLA-A*02:01. Put plainly: IEDB peptide-MHC binding, cellular MHC/competitive/fluorescence; filed as Kd, often an IC50 or EC50 that approximates it; ≥ and ≤ were set here for values at or beyond the usual limits of such assays. The conditions noted are these: source organism: Homo sapiens.
Setting [22] is: source organism: Cryptosporidium parvum Iowa II.
[23] abbreviates: source organism: Cryptosporidium parvum.
[24] abbreviates: source organism: Giardia lamblia ATCC 50803.

Turning to RKWGLDFCY, the dissociation constant Kd in the test with HLA-A*26:03 [1] is no less than 20 µM; with HLA-A*26:01 (setting [22]), no less than 20 µM; in the test with HLA-B*08:02 [2], no less than 20 µM; with HLA-B*58:01 [3] (setting [23]) it was no less than 20 µM; with HLA-B*27:02, 7 µM; in the test with HLA-B*15:09 it was no less than 20 µM. The Kd is no less than 20 µM with HLA-B*08:03 [4]; 2.08 µM with HLA-B*15:01 (setting [23]); no less than 20 µM in the test with HLA-B*73:01; no less than 20 µM in the test with HLA-A*69:01 (setting [23]); 0.0555 µM in the test with HLA-B*27:05 (setting [23]); no less than 20 µM with HLA-B*18:01. Also, the Kd with HLA-A*68:02, in the test with HLA-A*03:01 [5] (setting [23]), with HLA-B*48:01, with HLA-A*01:01 (setting [23]), in the test with HLA-A*31:01 [6] (setting [23]) and with HLA-A*11:01 [7] (setting [23]) was no less than 20 µM throughout. The Kd was no less than 20 µM with HLA-A*02:01 [8] (setting [23]); 9 µM in the test with HLA-B*07:02 (setting [23]); no less than 20 µM in the test with HLA-B*57:01 [9]; no less than 20 µM with HLA-B*39:01; no less than 20 µM with HLA-A*26:02 (setting [22]); no less than 20 µM with HLA-B*15:17.
Turning to IATLYCVHQK, the Kd with HLA-A*26:03 [10], with HLA-B*08:02 [11], with HLA-B*08:03 [12], with HLA-A*03:01 [13], with HLA-A*26:02 (source organism: Human immunodeficiency virus 1) and with HLA-A*31:01 [14] was no less than 20 µM each time. Besides, the figures for the Kd with HLA-A*11:01 [15] and in the test with HLA-A*30:01 [16] were 1.71 µM and no less than 5 µM, respectively.
As for KTPWDRFCK, the Kd with HLA-A*26:01 (setting [24]), in the test with HLA-B*58:01 [3] (setting [24]), with HLA-B*08:01, with HLA-B*15:01 (setting [24]), in the test with HLA-B*44:02 and with HLA-A*69:01 (setting [24]) was no less than 20 µM each time. The Kd with HLA-B*27:05 (setting [24]) was no less than 20 µM; in the test with HLA-A*03:01 [5] (setting [24]), 3.63 µM; in the test with HLA-A*01:01 (setting [24]), no less than 20 µM; with HLA-A*31:01 [6] (setting [24]), 0.0957 µM; with HLA-A*11:01 [7] (setting [24]) it was 0.0641 µM; in the test with HLA-A*02:01 [8] (setting [24]), no less than 20 µM. Also, the Kd is no less than 20 µM with HLA-B*07:02 (setting [24]), no less than 20 µM in the test with HLA-B*40:01, 6.93 µM with HLA-A*24:03 and 0.0218 µM in the test with HLA-A*30:01 [17].
Take KMKEIAEAY: the equilibrium dissociation constant (Kd) is 2.03 µM with HLA-B*58:01 [18]; no less than 53.4 µM in the test with HLA-A*02:07; 0.0889 µM with HLA-A*29:02; no less than 78.1 µM in the test with HLA-A*02:01 [19]; 2.87 µM with HLA-B*57:01 [20]; 0.184 µM in the test with HLA-B*15:02. In the test with HLA-B*46:01, this sequence displayed a Kd of 0.446 µM.
In turn, KLVVVGAGGV registered a Kd with HLA-A*02:01 [21] of no less than 156 µM.

For orientation: Kd means a measure of binding affinity in units of concentration.

Source of the values: the Immune Epitope Database (IEDB).
